Laboratory results reported in PMC5979958 (Scientific Reports, 2018).
Where “and” joins values, the source holds several entries; their conditions need not be identical. Identical values can stand only once.

Legend:
[1] = tested on: MIF/CXCR4-dependent JVM-3 lymphocyte chemotaxis; assay: inhibition of MIF-mediated JVM-3 B cell chemotaxis by RLR-containing peptides; type: cell-based, human; settings: 16 nM WT-MIF, pre-incubated 30 min, migration 24 h, 3–12 replicates, 2–3 experiments
Protocol: (§1) Migration assays using the CXCR4-expressing JVM-3 B cell line were performed in a transmigration well as previously described[32] using the following modifications. Briefly, JVM-3 B cells were sub-cultured and transferred to media without FBS. A migration assay was performed using 24-well format Transwell membranes (Sigma-Corning; 5 µm pore size) containing 1 × 10^6 JVM-3 cells in the upper chamber. […] As positive control, 8 nM CXCL12 was used. Wells without chemoattractant served as negative control and were used to normalize migration effects to ‘chemotactic index’ (number of migrated cells in the presence of chemoattractant divided by the number of migrated cells in the absence of the chemoattractant) – as described previously. […] Cells were allowed to migrate for 24 h. After migration, cells in the lower chamber were counted using Countbright absolute counting beads (Invitrogen) using a FACSVerse flow cytometer (BD Biosciences, Heidelberg, Germany).

[2] = tested on: human CXCR4 expressed in S. cerevisiae; settings: yeast CXCR4 signaling system, in comparison with CXCL12; cited from earlier work
From the text: To address the contribution of the RLR motif to MIF/CXCR4-specific cell signaling responses, we employed a genetically modified strain of Saccharomyces cerevisiae that replaces the yeast ste2 GPCR with human CXCR4 as previously reported. This cell system eliminates complications from mammalian cells that usually express more than one or all MIF cell surface receptors and is based on agonist-mediated activation of CXCR4 leading to a signaling cascade that results in β-galactosidase expression from the Fus1-lacZ reporter plasmid.

[3] = circular dichroism spectroscopy; type: physicochemical; settings: for aggregation-tendency: far-UV CD at 1, 2.5, and 5 µM, 10 mM sodium phosphate, pH 7.2, 25 °C
Protocol: CD spectroscopy provides a good estimation of the secondary structural profile of a protein and records relative changes in average secondary structural content, e.g. when a mutated protein is compared to its wildtype counterpart.
Far-UV circular dichroism (CD) spectra were recorded in a Jasco 700 CD spectropolarimeter (Jasco Labor- u. Datentechnik GmbH, Groß-Umstadt, Germany). Scans were recorded at 25 °C between 195 and 250 nm as an average of three scans and smoothed to obtain the final data. Spectra were collected at 1.0 nm intervals with a bandwidth of 1 nm in a buffer containing 10 mM sodium phosphate, pH 7.2. […] CD spectra are presented as a plot of mean residue ellipticities. […] Secondary structure fractions were quantitated by the Dichroweb online software webtool by deconvolutions of CD spectra using ContinLL at DichroWeb and the reference spectra set 7[43],[44].

[4] = tested on: JVM-3 B cells (CXCR4-expressing); assay: lymphocyte chemotaxis assay, JVM-3 B cells (chemoattractant); type: cell-based, human; settings: for chemotactic effect compared with another chemoattractant: WT-MIF compared with CXCL12, RLR mutant compared with WT-MIF
Protocol: JVM-3 cells (ACC-18) are a chronic B cell leukemia cell line and were kindly provided by Prof. M. Hallek, University of Cologne Medical School, Cologne, Germany. JVM-3 were grown in RPMI media with 1% penicillin/streptomycin and 10% fetal bovine serum (Invitrogen-Thermo Fisher Scientific, Karlsruhe, Germany) essentially as described previously. Miscellaneous cell culture reagents also were bought from Invitrogen-Thermo Fisher Scientific and from PAA (Pasching, Austria). LPS content of the purified WT-MIF and RLR mutant proteins was tested by limulus amoebocyte assay (LAL, Lonza, Cologne, Germany) following the manufacturer’s recommendation. All other reagents were obtained from Sigma, Merck, Roth, or Calbiochem, and were of the highest purity degree available.
as §1

[5] = size exclusion chromatography, oligomeric state; type: physicochemical; settings: Superdex 75, 20 mM sodium phosphate, pH 7.2
Protocol: The mutant protein was eluted from the anion exchange column via salt gradient and subjected to size exclusion chromatography (SEC) for further purification.
Following Q sepharose, the protein was further purified by size exclusion chromatography (SEC, Superdex 75, GE Healthcare) in 20 mM sodium phosphate buffer, pH 7.2, i.e. buffer conditions compatible with MIF bioactivity.

[6] = biological target: the molecule itself; assay: SEC; Superdex 75 in 20 mM sodium phosphate buffer, pH 7.2, after Q sepharose; peaks at approximately 23 and 38 kDa

ERLRISPDRVYINYY [MIF(86–100), RLR-spanning MIF peptide]
inhibition of WT-MIF-mediated JVM-3 chemotaxis ([1]; peptide 10 nM and 100 nM): trend towards inhibition | inhibition of WT-MIF-mediated JVM-3 chemotaxis ([1]; peptide 1 µM): significant and complete blockade

YSKLLCGLLAERLRI [MIF(76–90), RLR-spanning MIF peptide]
inhibition of WT-MIF-mediated JVM-3 chemotaxis ([1]; peptide 10 nM and 100 nM): ablated

B1: macrophage migration inhibitory factor (protein, UniProt P14174 2-115, looked up)
Macrophage migration …: PMFIVNTNVPRASVPDGFLSELTQQLAQATGKPPQYIAVHVVPDQLMAFGGSSEPCALCSLHSIGKIGGAQNRSYSKLLCGLLAERLRISPDRVYINYYDMNAANVGWNNSTFA
notes: recombinant human MIF
type of agonism at CXCR4 [2]: partial allosteric agonism | aggregation-tendency [3]: neither protein showed an aggregation-tendency | chemotactic effect compared with another chemoattractant [4]: lower than that of CXCL12

B2: R87A-L88A-R89A-MIF (ligand, human, UniProt P14174 1-115, looked up)
chain: MPMFIVNTNVPRASVPDGFLSELTQQLAQATGKPPQYIAVHVVPDQLMAFGGSSEPCALCSLHSIGKIGGAQNRSYSKLLCGLLAEAAAISPDRVYINYYDMNAANVGWNNSTFA
notes: also called RLR mutant; MIF R87A-L88A-R89A triple mutant; source: E. coli BL21/DE3 (pET11b), purified (Q sepharose anion exchange, Superdex 75 SEC)
approximate molecular size of SEC peak, first species ([5]; suggests dimers): ~23 kDa | approximate molecular size of SEC peak, second species ([5]; suggests trimers): ~38 kDa | increase of random coil content vs WT-MIF ([3]; CD deconvolution by Dichroweb): approximately 20% | reduction of α-helix content vs WT-MIF ([3]; CD deconvolution by Dichroweb): 12% | reduction of β-strand percentage vs WT-MIF ([3]; CD deconvolution by Dichroweb): 7% | decrease in ordered secondary structural content vs WT-MIF ([3]; CD spectroscopy): 20% | aggregation-tendency [3]: neither protein showed an aggregation-tendency | stoichiometry N [6]: 2 and 3 | chemotactic activity on JVM-3 B cells ([4]; RLR mutant 8 nM, 16 nM, 32 nM, p = ns, 24 h, Transwell 5 µm): did not exhibit a significant chemotactic activity | chemotactic activity on JVM-3 lymphocytes ([4]; RLR mutant 16 nM (optimal concentration of WT-MIF)): failed to show any chemotactic activity | chemotactic activity on JVM-3 lymphocytes ([4]; RLR mutant 32 nM, effect did not reach statistical significance): slight increase in activity | chemotactic effect compared with another chemoattractant [4]: Impaired chemotactic effect | chemotactic effect compared with another chemoattractant ([4]; listed as MIF R87A-L88A-R89A triple mutant): reduced cell migratory response | chemotactic effect compared with another chemoattractant ([4]; listed as RLR-mutant of MIF): reduction
